# Laboratory results published in patent publication US11344606B2, “Parathyroid hormone fusion polypeptide” (University of Sheffield, priority 2017, dated 2022).
# Key:
# [1] = test system: UMR-106 cells (PTH responsive cell line); experiment: In vitro induction of cAMP in UMR-106 cells (cAMP ELISA); type: cell-based, rat
# Procedure: FIG. 3: In Vitro Bioactivity of 14A1 and 14A2 proteins. Purified proteins were tested for their ability to stimulate cAMP production from the PTH responsive cell line, UMR-106 (rat osteoblastic like cell line). Cells were stimulated for 15 minutes in the presence of test molecules and cAMP levels measured from cell lysates using a cAMP specific Elisa. […] Data is presented as pmol cAMP/ml+/−Standard deviation;
# FIG. 29A: In vitro induction of cAMP. […] Cells were lysed and cAMP levels measured using an R & D systems Parameter cAMP Elisa. Data are presented as log pmol cAMP/ml±SD. […] Average of n=1 experiment carried out in duplicate.
# Purified proteins were tested for their ability to stimulate cAMP production from the PTH responsive cell line, UMR-106 (rat osteoblastic like cell line). Cells were stimulated for 15 minutes in the presence of test molecules and cAMP levels measured from cell lysates using a cAMP specific Elisa (R&D systems).
# UMR-106 cells = experiment: Dual Luciferase Reporter Assay for cAMP activity (pGL4.29/CRE/Luc2) in UMR-106 cells; type: cell-based, rat; conditions: FIG. 29D
# Excerpt: Cells were lysed and Luciferase activity measured using the Promega Dual Luciferase Assay kit. Data are presented as fold induction of control±SD. […] Average of triplicate values. […] Representative of 3 separate experiments.
# Cells were lysed and Luciferase activity measured using the Promega Dual Luciferase Assay kit. Data are presented as fold induction of control±SD.
# FIG. 29D: Determination of EC50 values for PTH & PTH fusions using the Dual Luciferase Reporter Assay.
# [2] = 500 nM PTH fusion, 15 minutes at 37° C./5% CO2, FIG. 29A, n=1 experiment in duplicate
fold by which PTH is more potent than the fusion (EC50 ratio) (UMR-106 cells),Molecule,"cAMP levels (mean±SD) ([1]; 100 nM human PTH 1-34, 15 minutes at 37° C./5% CO2, FIG. 29A)","cAMP levels (mean±SD) [1, 2]"
–,"CC[C@H](C)[C@H](NC(=O)[C@H](CCC(=O)O)NC(=O)[C@H](CO)NC(=O)[C@@H](NC(=O)[C@@H](N)CO)C(C)C)C(=O)N[C@@H](CCC(N)=O)C(=O)N[C@@H](CC(C)C)C(=O)N[C@@H](CCSC)C(=O)N[C@@H](Cc1c[nH]cn1)C(=O)N[C@@H](CC(N)=O)C(=O)N[C@@H](CC(C)C)C(=O)NCC(=O)N[C@@H](CCCCN)C(=O)N[C@@H](Cc1c[nH]cn1)C(=O)N[C@@H](CC(C)C)C(=O)N[C@@H](CC(N)=O)C(=O)N[C@@H](CO)C(=O)N[C@@H](CCSC)C(=O)N[C@@H](CCC(=O)O)C(=O)N[C@@H](CCCNC(=N)N)C(=O)N[C@H](C(=O)N[C@@H](CCC(=O)O)C(=O)N[C@@H](Cc1c[nH]c2ccccc12)C(=O)N[C@@H](CC(C)C)C(=O)N[C@@H](CCCNC(=N)N)C(=O)N[C@@H](CCCCN)C(=O)N[C@@H](CCCCN)C(=O)N[C@@H](CC(C)C)C(=O)N[C@@H](CCC(N)=O)C(=O)N[C@@H](CC(=O)O)C(=O)N[C@H](C(=O)N[C@@H](Cc1c[nH]cn1)C(=O)N[C@@H](CC(N)=O)C(=O)N[C@@H](Cc1ccccc1)C(=O)O)C(C)C)C(C)C [PTH 1-34, reference compound]",2551±186 pmol cAMP/ml,–
28 fold,"14A3b: GHss-PTH (1-34)-(g4s)4-PTHrExt-(g4s)4-GHbp, SEQ ID NO: 14 (protein, Fusion proteins) MATGSRTSLLLAFGLLCLPWLQEGSASVSEIQLMHNLGKHLNSMERVEWLRKKLQDVHNFGGGGSGGGGSGGGGSGGGGSDDVMTKEEQIFLLHRAQAQCEKRLKEVLQRPASIMESDKGWTSASTSGKPRKDKASGKLYPESEEDKEAPTGSRYRGRPCLPEWDHILCWPLGAPGEVVAVPCPDYIYDFNHKGHAYRRCDRNGSWELVPGHNRTWANYSECVKFLTNETREREVFDRLGGGGSGGGGSGGGGSGGGGSFSGSEATAAILSRAPWSLQSVNPGLKTNSSKEPKFTKCRSPERETFSCHWTDEVHHGTKNLGPIQLFYTRRNTQEWTQEWKECPDYVSAGENSCYFNSSFTSIAIPYCIKLTSNGGTVDEKCFSVDEIVQPDPPIALNWTLLNVSLTGIHADIQVRWEAPRNADIQKGWMVLEYELQYKEVNETKWKMMDPILTTSVPVYSLKVDKEYEVRVRSKQRNSGNYGEFSEVLYVTLPQMSQ",–,25±0.95 pmol cAMP/ml
~18 fold,"14A2c: PTHss-pp-PTH (1-34)-(g4s)4-PTHrExt-(g4s)4-GHbp, SEQ ID NO: 13 (protein, Fusion proteins) MIPAKDMAKVMIVMLAICFLTKSDGKSVKKRSVSEIQLMHNLGKHLNSMERVEWLRKKLQDVHNFGGGGSGGGGSGGGGSGGGGSDDVMTKEEQIFLLHRAQAQCEKRLKEVLQRPASIMESDKGWTSASTSGKPRKDKASGKLYPESEEDKEAPTGSRYRGRPCLPEWDHILCWPLGAPGEVVAVPCPDYIYDFNHKGHAYRRCDRNGSWELVPGHNRTWANYSECVKFLTNETREREVFDRLGGGGSGGGGSGGGGSGGGGSFSGSEATAAILSRAPWSLQSVNPGLKTNSSKEPKFTKCRSPERETFSCHWTDEVHHGTKNLGPIQLFYTRRNTQEWTQEWKECPDYVSAGENSCYFNSSFTSIAIPYCIKLTSNGGTVDEKCFSVDEIVQPDPPIALNWTLLNVSLTGIHADIQVRWEAPRNADIQKGWMVLEYELQYKEVNETKWKMMDPILTTSVPVYSLKVDKEYEVRVRSKQRNSGNYGEFSEVLYVTLPQMSQ",–,264±12 pmol cAMP/ml
